Assay in all cases: IEDB peptide-MHC binding, purified MHC/competitive/radioactivity; filed as Kd, often an IC50 or EC50 that approximates it; ≥ and ≤ were set here for values at or beyond the usual limits of such assays
For experiment [1], the target named is HLA-A*11:01.
Experiment [2] deals with HLA-A*03:01.
Experiment [3] deals with HLA-A*31:01.
In experiment [4] the target is HLA-A*68:01.
Experiment [5] concerns the target HLA-A*33:01.
The mark [6] stands for this setting: source organism: Dengue virus 4 Philippines/H241/1956.
[7] abbreviates: source organism: SARS coronavirus Tor2.
Where [8] appears, read: source organism: Vaccinia virus WR.
[9] abbreviates: source organism: Mammarenavirus brazilense.
[10] abbreviates: source organism: Vaccinia virus Copenhagen.
[11] abbreviates: source organism: Dengue virus 1 Brazil/97-11/1997.
[12] abbreviates: source organism: Dengue virus 2 Peru/IQT2913/1996.
Where [13] appears, read: source organism: Dengue virus 3 Martinique/1243/1999.
[14] abbreviates: source organism: Dengue virus 2 Jamaica/1409/1983.

As a reminder, the Kd is the equilibrium constant for the complex coming apart. With AIKILTGFRK, the Kd was found to be 1760 nM in experiment [1] (setting [6]) and 103 nM in experiment [2] (setting [6]).
With KFTTSLSLHK, the Kd was determined as 239 nM in experiment [3] (setting [7]); 302 nM in experiment [4] (setting [7]); 135 nM in experiment [1] (setting [7]); 275 nM in experiment [2] (setting [7]); 8190 nM in experiment [5] (setting [7]).
As for MIIKHIYEQY, the Kd was ≥ 70000 nM in experiment [3] (setting [8]); 140 nM in experiment [4] (setting [8]); 5780 nM in experiment [1] (setting [8]); ≥ 70100 nM in experiment [2] (setting [8]); ≥ 70000 nM in experiment [5] (setting [8]).
Take GSTAEQLSK: the Kd was ≥ 77900 nM in experiment [3] (setting [8]); ≥ 43000 nM in experiment [4] (setting [8]); 14 nM in experiment [1] (setting [8]); 307 nM in experiment [2] (setting [8]); ≥ 77700 nM in experiment [5] (setting [8]).
Consider KCSDHYICLK, for which the Kd in experiment [3] (setting [9]) is 482 nM; in experiment [4] (setting [9]), ≥ 70100 nM; in experiment [1] (setting [9]), 1890 nM; in experiment [2] (setting [9]) it was 276 nM; in experiment [5] (setting [9]) it was 8220 nM.
Take NTRQLKLLEY: the Kd in experiment [3] (setting [8]) is 9830 nM; in experiment [4] (setting [8]), 1590 nM; in experiment [1] (setting [8]) it was 152 nM; in experiment [2] (setting [8]) it was 969 nM; in experiment [5] (setting [8]), 10800 nM.
For TFNSLNTDDY the same measures were ≥ 34200 nM, 4080 nM, 10100 nM, 5440 nM and ≥ 70000 nM.
For TTKDYFSFKK the same measures were 96.4 nM, 0.556 nM, 1.25 nM, 31.3 nM and 1330 nM.
For HINALEYIIK the same measures were 1520 nM, 35.9 nM, 87.9 nM, 117 nM and 200 nM.
Consider EMVDELVTRK, for which the dissociation constant (Kd) is ≥ 70000 nM in experiment [3] (setting [8]); 1210 nM in experiment [4] (setting [8]); 8710 nM in experiment [1] (setting [8]); ≥ 70100 nM in experiment [2] (setting [8]); ≥ 70000 nM in experiment [5] (setting [8]).
With ATMLEYVRY, the Kd in experiment [3] (setting [8]) was 3410 nM; in experiment [4] (setting [8]), ≥ 29400 nM; in experiment [1] (setting [8]), 23.5 nM; in experiment [2] (setting [8]), 1700 nM; in experiment [5] (setting [8]), ≥ 77700 nM.
For GVIADYNYK, the Kd came to 126 nM in experiment [3] (setting [7]); 72 nM in experiment [4] (setting [7]); 5.97 nM in experiment [1] (setting [7]); 23.8 nM in experiment [2] (setting [7]); 4910 nM in experiment [5] (setting [7]).
For QSADASTFLK the same measures were 1020 nM, 49.4 nM, 10.2 nM, 348 nM and 5290 nM.
In the case of AITPTIEDDK, the Kd was ≥ 47900 nM in experiment [3] (setting [8]); 6640 nM in experiment [4] (setting [8]); 115 nM in experiment [1] (setting [8]); 487 nM in experiment [2] (setting [8]); ≥ 42600 nM in experiment [5] (setting [8]).
Turning to IAVSTANIFR, the Kd in experiment [4] (setting [6]) amounted to 9.46 nM; in experiment [5] (setting [6]) it was 1050 nM.
As to VSYEVFDDY, the Kd in experiment [3] (setting [8]) is ≥ 77900 nM; in experiment [4] (setting [8]), 1570 nM; in experiment [1] (setting [8]), 134 nM; in experiment [2] (setting [8]), ≥ 37100 nM; in experiment [5] (setting [8]), 19100 nM.
Take VVPDYGTYK: the Kd in experiment [3] (setting [7]) stood at 2720 nM; in experiment [4] (setting [7]) it was 494 nM; in experiment [1] (setting [7]) it was 84.4 nM; in experiment [2] (setting [7]) it was 309 nM; in experiment [5] (setting [7]) it was 17200 nM.
Turning to IVNNQESNK, the Kd in experiment [3] (setting [10]) was 1180 nM; in experiment [4] (setting [10]) it was 111 nM; in experiment [1] (setting [10]), 147 nM; in experiment [2] (setting [10]), 132 nM; in experiment [5] (setting [10]), ≥ 77700 nM.
Regarding RIQRRDDVDR, the Kd in experiment [3] (setting [8]) is 78.5 nM; in experiment [4] (setting [8]) it was ≥ 42500 nM; in experiment [1] (setting [8]), ≥ 69800 nM; in experiment [2] (setting [8]), ≥ 70100 nM; in experiment [5] (setting [8]), 17600 nM.
ATTVITPMMR: the Kd is 125 nM in experiment [3] (setting [11]), 368 nM in experiment [4] (setting [11]) and 141 nM in experiment [1] (setting [11]).
For the sequence FVCKHSMVDR, the values for the Kd in experiment [3] (setting [12]), in experiment [4] (setting [12]) and in experiment [5] (setting [12]) were 117 nM, 1050 nM and 122 nM, respectively.
Take RIMQRGLFGK: the results for the Kd in experiment [3] (setting [6]), in experiment [1] (setting [6]) and in experiment [2] (setting [6]) were 10.9 nM, 29.5 nM and 5.43 nM, respectively.
In the case of KSEFNTYKR, in experiment [3] (setting [11]), the Kd was 1340 nM.
Regarding GLLFRRLTSR, the Kd in experiment [3] (setting [11]) is ≥ 53700 nM; in experiment [2] (setting [11]) it was 170 nM.
As for ITVDDDGTMR, the Kd in experiment [4] (setting [13]) is 77.3 nM.
Consider MLNILNGRKR, for which the Kd in experiment [3] (setting [6]) is 17.3 nM.
Regarding ITNITTDSR, the Kd in experiment [4] (setting [13]) was determined as 26.3 nM.
Take AVLMHKGKR: the Kd in experiment [3] (setting [14]) was found to be 64.7 nM.
ISIMIEEVMR: in experiment [4] (source organism: Dengue virus 1 Singapore/S275/1990), the Kd turned out to be 82.3 nM.
Regarding ITVNPIVTEK, the dissociation constant Kd worked out at 154 nM in experiment [4] (setting [14]), 69.2 nM in experiment [1] (setting [14]) and 24.1 nM in experiment [2] (setting [14]).
In the case of TLFGPEREK, in experiment [2] (setting [6]), the Kd turned out to be 85.9 nM.
With MGYWIESQK, the Kd in experiment [4] (setting [13]) was determined as 67.2 nM; in experiment [2] (setting [13]), 12.8 nM.

The values are drawn from the Immune Epitope Database (IEDB).
